Experimental data from the supplement of paper PMC9428881.
± gives the standard error.

Assay: background-corrected fluorescence of 3'-dye-labeled ssDNA relative to brightest sequence (3'-GCGCG) (fraction); higher = brighter dye fluorescence (less quenching)
In short: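 By light-directed phosphoramidite synthesis, single-stranded DNA ending in a 3' Cy3 or Cy5 dye beside each of 1024 permuted pentamers was built on glass slides. Scanning at 532 or 635 nm took place before and after overnight ethylenediamine/ethanol deprotection. Data are means of 10 features per array over at least 3 syntheses. Fluorescence is corrected for unlabeled-oligo background and scaled to the brightest sequence.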

Row | Sequence | background-corrected fluorescence (dye: Cy3 (3' terminal)) | background-corrected fluorescence (dye: Cy5 (3' terminal))
1 | TTTTTTGATGCTGCTCATCATTTTTTTTTTTTTTTCAAGG [GGAAC] | 0.579 ± 0.028 | 0.489 ± 0.029
2 | TTTTTTGATGCTGCTCATGATTTTTTTTTTTTTTTCAAGC [CGAAC] | 0.514 ± 0.024 | 0.426 ± 0.07
3 | TTTTTTGATGCTGCTCATGCTTTTTTTTTTTTTTTCAAGA [AGAAC] | 0.683 ± 0.036 | 0.543 ± 0.026
4 | TTTTTTGATGCTGCTGAGCATTTTTTTTTTTTTTTCAACT | 0.53 ± 0.011 | 0.342 ± 0.018
5 | TTTTTTGATGCTGCTGATCATTTTTTTTTTTTTTTCAACG [GCAAC] | 0.535 ± 0.022 | 0.408 ± 0.039
6 | TTTTTTGATGCTGCTGATGATTTTTTTTTTTTTTTCAACC [CCAAC] | 0.377 ± 0.027 | 0.265 ± 0.023
7 | TTTTTTGATGCTGCTGATGCTTTTTTTTTTTTTTTCAACA [ACAAC] | 0.489 ± 0.0058 | 0.368 ± 0.022
8 | TTTTTTGATGCTGCTGCGCATTTTTTTTTTTTTTTCAAAT [TAAAC] | 0.553 ± 0.017 | 0.41 ± 0.061
9 | TTTTTTGATGCTGCTGCTCATTTTTTTTTTTTTTTCAAAG [GAAAC] | 0.535 ± 0.017 | 0.396 ± 0.026
10 | TTTTTTGATGCTGCTGCTGATTTTTTTTTTTTTTTCAAAC | 0.428 ± 0.03 | 0.323 ± 0.031
11 | TTTTTTGATGCTGCTGCTGCTTTTTTTTTTTTTTTCAAAA [AAAAC] | 0.569 ± 0.015 | 0.47 ± 0.03
12 | TTTTTTGCGCAGCAGCAGCATTTTTTTTTTTTTTTATTTT | 0.488 ± 0.022 | 0.381 ± 0.02
13 | TTTTTTGCGCAGCAGCATCATTTTTTTTTTTTTTTATTTG [GTTTA] | 0.5 ± 0.026 | 0.355 ± 0.025
14 | TTTTTTGCGCAGCAGCATGATTTTTTTTTTTTTTTATTTC [CTTTA] | 0.404 ± 0.0099 | 0.307 ± 0.019
15 | TTTTTTGCGCAGCAGCATGCTTTTTTTTTTTTTTTATTTA | 0.545 ± 0.017 | 0.432 ± 0.031
16 | TTTTTTGCGCAGCATCAGCATTTTTTTTTTTTTTTATTGT [TGTTA] | 0.589 ± 0.027 | 0.486 ± 0.037
17 | TTTTTTGCGCAGCATCATCATTTTTTTTTTTTTTTATTGG [GGTTA] | 0.549 ± 0.038 | 0.476 ± 0.055
18 | TTTTTTGCGCAGCATCATGATTTTTTTTTTTTTTTATTGC [CGTTA] | 0.525 ± 0.024 | 0.402 ± 0.051
19 | TTTTTTGCGCAGCATCATGCTTTTTTTTTTTTTTTATTGA [AGTTA] | 0.643 ± 0.018 | 0.555 ± 0.03
20 | TTTTTTGCGCAGCATGAGCATTTTTTTTTTTTTTTATTCT [TCTTA] | 0.45 ± 0.021 | 0.326 ± 0.021
21 | TTTTTTGCGCAGCATGATCATTTTTTTTTTTTTTTATTCG [GCTTA] | 0.519 ± 0.034 | 0.388 ± 0.021
22 | TTTTTTGCGCAGCATGATGATTTTTTTTTTTTTTTATTCC [CCTTA] | 0.404 ± 0.016 | 0.272 ± 0.02
23 | TTTTTTGCGCAGCATGATGCTTTTTTTTTTTTTTTATTCA [ACTTA] | 0.484 ± 0.035 | 0.351 ± 0.021

Row | Sequence | background-corrected fluorescence (dye: Cy3 (3' terminal)) | background-corrected fluorescence (dye: Cy5 (3' terminal))
24 | TTTTTTGCGCAGCATGCGCATTTTTTTTTTTTTTTATTAT | 0.508 ± 0.031 | 0.418 ± 0.024
25 | TTTTTTGCGCAGCATGCTCATTTTTTTTTTTTTTTATTAG [GATTA] | 0.552 ± 0.011 | 0.421 ± 0.058
26 | TTTTTTGCGCAGCATGCTGATTTTTTTTTTTTTTTATTAC [CATTA] | 0.405 ± 0.022 | 0.334 ± 0.032
27 | TTTTTTGCGCAGCATGCTGCTTTTTTTTTTTTTTTATTAA [AATTA] | 0.585 ± 0.024 | 0.416 ± 0.035
28 | TTTTTTGCGCATCAGCAGCATTTTTTTTTTTTTTTATGTT [TTGTA] | 0.575 ± 0.028 | 0.432 ± 0.035
29 | TTTTTTGCGCATCAGCATCATTTTTTTTTTTTTTTATGTG [GTGTA] | 0.607 ± 0.043 | 0.452 ± 0.034
30 | TTTTTTGCGCATCAGCATGATTTTTTTTTTTTTTTATGTC [CTGTA] | 0.454 ± 0.021 | 0.351 ± 0.046
31 | TTTTTTGCGCATCAGCATGCTTTTTTTTTTTTTTTATGTA | 0.549 ± 0.017 | 0.47 ± 0.039
32 | TTTTTTGCGCATCATCAGCATTTTTTTTTTTTTTTATGGT [TGGTA] | 0.649 ± 0.027 | 0.561 ± 0.028
33 | TTTTTTGCGCATCATCATCATTTTTTTTTTTTTTTATGGG [GGGTA] | 0.661 ± 0.035 | 0.548 ± 0.037
34 | TTTTTTGCGCATCATCATGATTTTTTTTTTTTTTTATGGC [CGGTA] | 0.545 ± 0.043 | 0.445 ± 0.026
35 | TTTTTTGCGCATCATCATGCTTTTTTTTTTTTTTTATGGA [AGGTA] | 0.712 ± 0.02 | 0.599 ± 0.041
36 | TTTTTTGCGCATCATGAGCATTTTTTTTTTTTTTTATGCT [TCGTA] | 0.518 ± 0.029 | 0.393 ± 0.02
37 | TTTTTTGCGCATCATGATCATTTTTTTTTTTTTTTATGCG [GCGTA] | 0.587 ± 0.017 | 0.49 ± 0.035
38 | TTTTTTGCGCATCATGATGATTTTTTTTTTTTTTTATGCC [CCGTA] | 0.436 ± 0.0052 | 0.319 ± 0.02
39 | TTTTTTGCGCATCATGATGCTTTTTTTTTTTTTTTATGCA [ACGTA] | 0.527 ± 0.024 | 0.46 ± 0.036
40 | TTTTTTGCGCATCATGCGCATTTTTTTTTTTTTTTATGAT [TAGTA] | 0.615 ± 0.028 | 0.471 ± 0.03
41 | TTTTTTGCGCATCATGCTCATTTTTTTTTTTTTTTATGAG [GAGTA] | 0.602 ± 0.036 | 0.466 ± 0.04
42 | TTTTTTGCGCATCATGCTGATTTTTTTTTTTTTTTATGAC [CAGTA] | 0.469 ± 0.0096 | 0.376 ± 0.02
43 | TTTTTTGCGCATCATGCTGCTTTTTTTTTTTTTTTATGAA [AAGTA] | 0.594 ± 0.017 | 0.51 ± 0.053
44 | TTTTTTGCGCATGAGCAGCATTTTTTTTTTTTTTTATCTT [TTCTA] | 0.458 ± 0.0056 | 0.35 ± 0.024
45 | TTTTTTGCGCATGAGCATCATTTTTTTTTTTTTTTATCTG [GTCTA] | 0.55 ± 0.026 | 0.371 ± 0.036
46 | TTTTTTGCGCATGAGCATGATTTTTTTTTTTTTTTATCTC [CTCTA] | 0.41 ± 0.024 | 0.291 ± 0.02

Row | Sequence | background-corrected fluorescence (dye: Cy3 (3' terminal)) | background-corrected fluorescence (dye: Cy5 (3' terminal))
47 | TTTTTTGCGCATGAGCATGCTTTTTTTTTTTTTTTATCTA | 0.482 ± 0.029 | 0.368 ± 0.025
48 | TTTTTTGCGCATGATCAGCATTTTTTTTTTTTTTTATCGT [TGCTA] | 0.605 ± 0.011 | 0.449 ± 0.027
49 | TTTTTTGCGCATGATCATCATTTTTTTTTTTTTTTATCGG [GGCTA] | 0.609 ± 0.022 | 0.504 ± 0.027
50 | TTTTTTGCGCATGATCATGATTTTTTTTTTTTTTTATCGC [CGCTA] | 0.534 ± 0.017 | 0.439 ± 0.02
51 | TTTTTTGCGCATGATCATGCTTTTTTTTTTTTTTTATCGA [AGCTA] | 0.635 ± 0.0066 | 0.517 ± 0.043
52 | TTTTTTGCGCATGATGAGCATTTTTTTTTTTTTTTATCCT [TCCTA] | 0.447 ± 0.015 | 0.348 ± 0.02
53 | TTTTTTGCGCATGATGATCATTTTTTTTTTTTTTTATCCG [GCCTA] | 0.518 ± 0.023 | 0.427 ± 0.035
54 | TTTTTTGCGCATGATGATGATTTTTTTTTTTTTTTATCCC [CCCTA] | 0.369 ± 0.026 | 0.247 ± 0.016
55 | TTTTTTGCGCATGATGATGCTTTTTTTTTTTTTTTATCCA [ACCTA] | 0.476 ± 0.012 | 0.373 ± 0.038
56 | TTTTTTGCGCATGATGCGCATTTTTTTTTTTTTTTATCAT [TACTA] | 0.511 ± 0.02 | 0.408 ± 0.028
57 | TTTTTTGCGCATGATGCTCATTTTTTTTTTTTTTTATCAG [GACTA] | 0.56 ± 0.045 | 0.411 ± 0.03
58 | TTTTTTGCGCATGATGCTGATTTTTTTTTTTTTTTATCAC [CACTA] | 0.399 ± 0.025 | 0.325 ± 0.032
59 | TTTTTTGCGCATGATGCTGCTTTTTTTTTTTTTTTATCAA [AACTA] | 0.522 ± 0.012 | 0.411 ± 0.035
60 | TTTTTTGCGCATGCGCAGCATTTTTTTTTTTTTTTATATT | 0.543 ± 0.019 | 0.392 ± 0.024
61 | TTTTTTGCGCATGCGCATCATTTTTTTTTTTTTTTATATG [GTATA] | 0.531 ± 0.013 | 0.407 ± 0.024
62 | TTTTTTGCGCATGCGCATGATTTTTTTTTTTTTTTATATC [CTATA] | 0.438 ± 0.025 | 0.322 ± 0.017
63 | TTTTTTGCGCATGCGCATGCTTTTTTTTTTTTTTTATATA | 0.537 ± 0.034 | 0.431 ± 0.042
64 | TTTTTTGCGCATGCTCAGCATTTTTTTTTTTTTTTATAGT [TGATA] | 0.587 ± 0.029 | 0.482 ± 0.041
65 | TTTTTTGCGCATGCTCATCATTTTTTTTTTTTTTTATAGG [GGATA] | 0.628 ± 0.019 | 0.516 ± 0.03
66 | TTTTTTGCGCATGCTCATGATTTTTTTTTTTTTTTATAGC [CGATA] | 0.519 ± 0.027 | 0.407 ± 0.031
67 | TTTTTTGCGCATGCTCATGCTTTTTTTTTTTTTTTATAGA [AGATA] | 0.602 ± 0.037 | 0.489 ± 0.045
68 | TTTTTTGCGCATGCTGAGCATTTTTTTTTTTTTTTATACT [TCATA] | 0.504 ± 0.024 | 0.378 ± 0.019
69 | TTTTTTGCGCATGCTGATCATTTTTTTTTTTTTTTATACG [GCATA] | 0.574 ± 0.022 | 0.43 ± 0.029
